Drawing on paper PMC10344781, this text covers Kd and koff for two molecules.

For this assay, the target named is T1, single-chain mouse Trp2/H2-K^b (scpMHC), biotinylated (mouse | not stated).
T1 chain 1: SVYDFFVWL
T1 chain 2: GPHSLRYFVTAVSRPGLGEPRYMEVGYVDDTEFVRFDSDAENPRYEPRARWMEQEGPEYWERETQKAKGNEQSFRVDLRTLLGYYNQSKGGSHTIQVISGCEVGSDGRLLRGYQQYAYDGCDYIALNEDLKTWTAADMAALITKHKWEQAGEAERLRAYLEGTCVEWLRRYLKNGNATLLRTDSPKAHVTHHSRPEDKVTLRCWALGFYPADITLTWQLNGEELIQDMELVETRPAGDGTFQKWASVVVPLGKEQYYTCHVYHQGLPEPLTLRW
T1 chain 3: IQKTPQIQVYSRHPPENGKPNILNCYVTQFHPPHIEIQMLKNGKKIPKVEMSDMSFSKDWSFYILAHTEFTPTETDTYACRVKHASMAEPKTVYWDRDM
Briefly: SPR. Conditions: modification not given, biotin on the biotinylation tag (BirA).

B1: mIgG2a clone 13 (wild-type mIgG2a) (protein)
chain 1: EVLLQQSGPELVKPGASVKIPCKASGYTFTDYYMDWVKQSHGKSLEWIGLINPNNGGTVYNQKFKGKATLTVDKSSSAAYMEVRSLTSEDTAVYYCARKPYTGHPAWFAYWGQGTLVTVSA
chain 2: DIQVTQSSSSFSVSLGDRVTITCKASEDIYNRLAWYQQKPGNAPRLLISGATSLETGVPDRFSGSGSRKDYTLIITSLQTEDVATYYCQQYYAFPLTFGAGTKLELK
A word on the Kd: it is the equilibrium constant for the complex coming apart. By koff is commonly meant a measure of how fast the partners let go of each other. A low value points to slow dissociation. B1 came in with a Kd of 2.5 nM and a koff of 0.00143 s⁻¹.

B2: purified scFv13 (Trp2/H2-K^b TCRm scFv clone 13) (protein)
chain 1: B1 chain 1
chain 2: B1 chain 2
In the case of B2, for the setting “scFv”, the Kd was found to be 8.6 nM and the koff was 0.00121 s⁻¹.
